Data on two molecules can be found in PMC10689933 (Molecular Therapy Oncolytics, 2023).

The target of assay [1] is T1, CD24, membrane-associated, on human cells (Homo sapiens, UniProt P25063).
T1 chain: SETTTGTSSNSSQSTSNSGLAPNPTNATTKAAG
Briefly: flow cytometry on cells. (In flow cytometry, cells or beads pass a laser one at a time.)

In the next assay the target is T2, His-tagged CD24 antigen (Homo sapiens (species assumed), UniProt P25063).
T2 chain: T1 chain
As to the kind of experiment: ELISA. In general terms: An ELISA detects its analyte on a solid surface through an enzyme-linked reagent.

B1: PPAB001, bispecific antibody fusion protein against CD47 and CD24 (bispecific antibody, V domains shown)
VH: VKLVESGGGLVQPGGSLKLSCAASGDSVTSKSMSWVRQAPSGGLQWIGRTYPDNGDSSYTPSVRSRFIISRDNAKNTLYLQMRKVRSEDTGFYYCARQGDYWGQGTTLTVSS
VL: DVVMTQTPLTLSLSPGQPASISCKSSQSGSIGRAKTYLNWYQQRPGQAPKLLIYDASKLDSGVPDRFTGSGSGTDFTLKISRVEAEDLGVYYCWQGTHFPYTFGGGTKLEIK
Turning to B1, the binding result (in assay [1]; with His-tagged CD24 antigen) was “binds” throughout.

B2: humanized anti-CD24 antibody with common light chain (antibody, V domains shown)
VH: B1 VH
VL: B1 VL
Regarding B2, in assay [1], the binding result is recorded as “binds”.
